Reference: patent US20250388702A1 (Dana-Farber, published 2025)

B1: KIR3DL3 mAb 574.2.2F11.2.7.4 (antibody, IgG2b, V domains shown)
VH: DVQLVESGGGLVQPGGSRKLSCAASGFTFSYFGMHWVRRAPEKGLEWVAFISSDSTTIYYTDTVKGRFTISRDNPKNTLFLQMTSLRSEDTAIYYCARFYDGAMDYWGQGTSVTVST
VL: DIVMTQSQKFMSTSVGDRVSITCKASQSVRTAVAWYQQKPGQSPKVLIYLASNRHTGVPDRFTGSGSGTDFTLTISNVQSEDLADYFCLQHWNYPLTFGAGTKLELK
notes: Parental mouse hybridoma antibody, IgG2b; only variable domains given; also called AVS-3703
B2: KIR3DL3 mAb 574.2.8F7.1.7.4 (antibody, IgG1, V domains shown)
VH: DVKLVESGGGLVKPGGSLKLSCAASGFTFSSYCMSWVRQTPEKRLEWVATISSGGNYIYYPDSVKGRFTISRDIAKNTLYLQMSSLKSEDTAMYYCTRGGYDERYFDYWGQGTILTVSS
VL: DIQMTQSPASLSASVGETVTITCRASENIYSYLAWYQQKQGKSPQLLVYNAKTLTEGMPSRFSGSGSGTQFSLRINSLQPEDFGSYYCQHHHGTPRTFGGGTKLEIK
notes: Mouse hybridoma antibody, IgG1; only variable domains given; also called AVS-3700
B3: KIR3DL3 mAb 574.2.1C7.D2.6.5 (antibody, IgG1, V domains shown)
VH: QVQLQQSGAELMKPGASVKISCKATGYTFSNYWIEWIKQRPGHGLEWIGEILPGSGSTNYNEKFKGKATFTAATSSNTAYMQLSSLTSEDSAVYYCARRVPDYYGSRYYFDYWGQGTTLTVSS
VL: NIVMTQSPKSMSMSVGERVTLSCKASENVGIYVSWYQQKPEQSPKLLIYGASNRYTGVPDRFTGSGSATDFTLTISSVQAEDLADYHCGQSYNYPFTFGSGTKLEIK
notes: Mouse hybridoma antibody, IgG1; only variable domains given; also called AVS-3698

target: T1, Human KIR3DL3 (human, UniProt Q8N743 26-410); experiment: cell-based or functional assay
T1 sequence (Q8N743 26-410 H321N limits assumed): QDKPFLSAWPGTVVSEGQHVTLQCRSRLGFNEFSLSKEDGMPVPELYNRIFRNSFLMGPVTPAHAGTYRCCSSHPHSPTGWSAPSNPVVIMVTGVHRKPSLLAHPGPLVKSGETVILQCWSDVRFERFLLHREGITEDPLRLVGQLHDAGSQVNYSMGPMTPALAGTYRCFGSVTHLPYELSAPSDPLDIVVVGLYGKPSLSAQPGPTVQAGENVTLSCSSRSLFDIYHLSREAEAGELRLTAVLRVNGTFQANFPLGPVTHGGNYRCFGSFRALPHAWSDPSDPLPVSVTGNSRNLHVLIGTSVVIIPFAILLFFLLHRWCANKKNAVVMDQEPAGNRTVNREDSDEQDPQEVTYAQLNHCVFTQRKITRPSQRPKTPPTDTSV

Jurkat IL-2 Luciferase Activation, EC50 [µg/mL]	Jurkat IL-2 Luciferase, Fold Activation [fold]	Binder
1.25	17.1	B1
	1.2	B2
77	8.2	B3

target: T1, Human KIR3DL3; experiment: flow cytometry, KIR3DL3-transfected 300.19 cells

EC50 [µg/mL]	Binder
0.43	B1
1	B2

target: T2, KIR2DS1 (UniProt Q14954 22-304, limits assumed); experiment: HEK293 cell microarray
T2 construct: whole, on cells
T2 sequence (Q14954 22-304 limits assumed): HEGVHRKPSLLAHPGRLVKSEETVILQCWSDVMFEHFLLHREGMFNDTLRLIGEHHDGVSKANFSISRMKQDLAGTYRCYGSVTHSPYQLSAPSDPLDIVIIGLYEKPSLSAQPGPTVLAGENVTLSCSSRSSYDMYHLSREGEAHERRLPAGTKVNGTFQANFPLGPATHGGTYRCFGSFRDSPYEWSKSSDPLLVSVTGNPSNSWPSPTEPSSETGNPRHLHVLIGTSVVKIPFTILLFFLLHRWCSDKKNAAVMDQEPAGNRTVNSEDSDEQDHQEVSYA
Procedure: (§1) Replicate microarray slides expressing a complete KIR family cDNA panel were fixed and blocked with buffer containing PBS/0.5% BSA and incubated for 1 hour at room temperature with individual KIR3DL3 mAb hybridoma supernatants at 1:5, 1:25 and 1:250 dilutions in PBS/0.1% BSA. Cell arrays were washed with PBS and incubated for 1 hour at room temperature in PBS/0.1% BSA containing AF647-conjugated goat anti-mouse IgG (H+L) (Life Technologies, A21235). Slides were washed with PBS, dried, and imaged for ZsGreen1 and AF647 fluorescence.
as §1, with “In Table 4, replicate” for “Replicate”, “the” for “a complete”, “panel (as in FIG. 1A, FIG. 2B, and FIG. 2C)” for “panel”

Binder	binding result
B1	no binding (tested: supernatant 1:5, 1:25, 1:250)
B2	no binding (tested: supernatant 1:5, 1:25, 1:250)
B3	no binding (tested: supernatant 1:5, 1:25, 1:250)

target: T3, KIR3DS1 (UniProt Q14943 22-382, limits assumed); experiment: HEK293 cell microarray
T3 construct: whole, on cells
T3 sequence (Q14943 22-382 limits assumed): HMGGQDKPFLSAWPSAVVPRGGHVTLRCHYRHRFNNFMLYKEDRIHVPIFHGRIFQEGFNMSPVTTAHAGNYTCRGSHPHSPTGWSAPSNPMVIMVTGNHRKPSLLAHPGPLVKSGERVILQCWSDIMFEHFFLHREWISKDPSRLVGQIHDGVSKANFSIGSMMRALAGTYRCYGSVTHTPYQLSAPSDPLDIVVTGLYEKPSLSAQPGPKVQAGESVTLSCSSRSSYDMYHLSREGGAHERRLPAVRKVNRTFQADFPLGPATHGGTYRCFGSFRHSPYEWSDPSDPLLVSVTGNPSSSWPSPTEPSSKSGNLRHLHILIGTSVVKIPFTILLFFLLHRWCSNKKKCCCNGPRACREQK
Procedure: as §1
as §1, with “In Table 4, replicate” for “Replicate”, “the” for “a complete”, “panel (as in FIG. 1A, FIG. 2B, and FIG. 2C)” for “panel”

Binder	binding result
B1	no binding (tested: supernatant 1:5, 1:25, 1:250)
B2	no binding (tested: supernatant 1:5, 1:25, 1:250)
B3	no binding (tested: supernatant 1:5, 1:25, 1:250)

target: T4, KIR2DS2 (UniProt P43631 22-304, limits assumed); experiment: HEK293 cell microarray
T4 construct: whole, on cells
T4 sequence (P43631 22-304 limits assumed): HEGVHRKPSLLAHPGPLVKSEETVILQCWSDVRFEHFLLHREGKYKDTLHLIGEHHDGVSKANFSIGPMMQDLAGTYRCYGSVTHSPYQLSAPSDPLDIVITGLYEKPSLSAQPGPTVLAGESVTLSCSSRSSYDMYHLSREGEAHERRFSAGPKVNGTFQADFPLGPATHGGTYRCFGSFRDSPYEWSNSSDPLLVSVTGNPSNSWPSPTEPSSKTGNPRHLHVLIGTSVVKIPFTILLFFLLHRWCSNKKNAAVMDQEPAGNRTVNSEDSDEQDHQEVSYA
Procedure: as §1
as §1, with “In Table 4, replicate” for “Replicate”, “the” for “a complete”, “panel (as in FIG. 1A, FIG. 2B, and FIG. 2C)” for “panel”

Binder	binding result
B1	no binding (tested: supernatant 1:5, 1:25, 1:250)
B2	no binding (tested: supernatant 1:5, 1:25, 1:250)
B3	no binding (tested: supernatant 1:5, 1:25, 1:250)

target: T5, KIR2DL1 (UniProt P43626 22-348, limits assumed); experiment: HEK293 cell microarray
T5 construct: whole, on cells
T5 sequence (P43626 22-348 limits assumed): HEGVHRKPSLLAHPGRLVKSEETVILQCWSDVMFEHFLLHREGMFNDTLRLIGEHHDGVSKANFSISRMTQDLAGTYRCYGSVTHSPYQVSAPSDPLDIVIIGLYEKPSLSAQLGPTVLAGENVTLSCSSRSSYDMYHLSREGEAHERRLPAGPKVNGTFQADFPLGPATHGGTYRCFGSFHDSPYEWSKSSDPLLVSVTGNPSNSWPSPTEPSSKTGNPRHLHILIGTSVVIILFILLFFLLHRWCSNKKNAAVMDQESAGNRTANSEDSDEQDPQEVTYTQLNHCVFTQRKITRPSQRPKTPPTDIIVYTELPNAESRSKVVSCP
Procedure: as §1
as §1, with “In Table 4, replicate” for “Replicate”, “the” for “a complete”, “panel (as in FIG. 1A, FIG. 2B, and FIG. 2C)” for “panel”

Binder	binding result
B1	no binding (tested: supernatant 1:5, 1:25, 1:250)
B2	no binding (tested: supernatant 1:5, 1:25, 1:250)
B3	no binding (tested: supernatant 1:5, 1:25, 1:250)

target: T6, KIR2DL5A (UniProt Q8N109 22-375, limits assumed); experiment: HEK293 cell microarray
T6 construct: whole, on cells
T6 sequence (Q8N109 22-375 limits assumed): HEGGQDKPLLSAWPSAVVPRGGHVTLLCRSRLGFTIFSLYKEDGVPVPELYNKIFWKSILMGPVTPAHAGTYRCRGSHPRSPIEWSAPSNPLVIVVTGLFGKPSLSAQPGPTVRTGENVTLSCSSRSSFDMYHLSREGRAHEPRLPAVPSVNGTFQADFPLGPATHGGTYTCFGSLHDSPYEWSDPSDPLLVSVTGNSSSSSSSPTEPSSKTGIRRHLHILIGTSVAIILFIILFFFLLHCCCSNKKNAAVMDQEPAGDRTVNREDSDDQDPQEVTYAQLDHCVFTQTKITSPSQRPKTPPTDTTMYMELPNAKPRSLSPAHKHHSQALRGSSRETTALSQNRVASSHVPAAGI
Procedure: as §1
as §1, with “In Table 4, replicate” for “Replicate”, “the” for “a complete”, “panel (as in FIG. 1A, FIG. 2B, and FIG. 2C)” for “panel”

Binder	binding result
B2	no binding (tested: supernatant 1:5, 1:25, 1:250)
B3	no binding (tested: supernatant 1:5, 1:25, 1:250)

target: T7, KIR2DS3 (UniProt Q14952 22-304, limits assumed); experiment: HEK293 cell microarray
T7 construct: whole, on cells
T7 sequence (Q14952 22-304 limits assumed): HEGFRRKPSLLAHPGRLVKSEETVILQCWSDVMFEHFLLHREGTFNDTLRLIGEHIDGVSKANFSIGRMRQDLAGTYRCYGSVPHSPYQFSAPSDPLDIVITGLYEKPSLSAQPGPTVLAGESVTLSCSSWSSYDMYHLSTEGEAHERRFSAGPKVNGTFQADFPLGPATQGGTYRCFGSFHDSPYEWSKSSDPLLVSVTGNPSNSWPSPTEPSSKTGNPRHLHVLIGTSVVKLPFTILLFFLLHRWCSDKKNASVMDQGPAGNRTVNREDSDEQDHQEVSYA
Procedure: as §1
as §1, with “In Table 4, replicate” for “Replicate”, “the” for “a complete”, “panel (as in FIG. 1A, FIG. 2B, and FIG. 2C)” for “panel”

Binder	binding result
B1	no binding (tested: supernatant 1:5, 1:25, 1:250)
B2	no binding (tested: supernatant 1:5, 1:25, 1:250)
B3	no binding (tested: supernatant 1:5, 1:25, 1:250)

target: T8, KIR3DL2 (UniProt P43630 22-455, limits assumed); experiment: HEK293 cell microarray
T8 construct: whole, on cells
T8 sequence (P43630 22-455 limits assumed): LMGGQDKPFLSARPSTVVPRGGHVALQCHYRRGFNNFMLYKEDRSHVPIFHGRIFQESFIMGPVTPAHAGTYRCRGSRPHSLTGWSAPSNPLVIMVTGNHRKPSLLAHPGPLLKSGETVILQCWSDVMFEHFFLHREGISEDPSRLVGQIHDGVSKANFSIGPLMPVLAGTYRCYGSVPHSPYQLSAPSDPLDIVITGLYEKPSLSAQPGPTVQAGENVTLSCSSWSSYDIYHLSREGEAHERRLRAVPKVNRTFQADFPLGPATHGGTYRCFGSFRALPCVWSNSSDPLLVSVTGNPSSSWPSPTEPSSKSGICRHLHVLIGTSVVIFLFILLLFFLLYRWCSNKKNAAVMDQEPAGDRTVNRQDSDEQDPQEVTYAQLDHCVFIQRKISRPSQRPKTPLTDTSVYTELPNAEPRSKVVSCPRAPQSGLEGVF
Procedure: as §1
as §1, with “In Table 4, replicate” for “Replicate”, “the” for “a complete”, “panel (as in FIG. 1A, FIG. 2B, and FIG. 2C)” for “panel”

Binder	binding result
B1	no binding (tested: supernatant 1:5, 1:25, 1:250)
B2	no binding (tested: supernatant 1:5, 1:25, 1:250)
B3	no binding (tested: supernatant 1:5, 1:25, 1:250)

target: T9, KIR2DS5 (UniProt Q14953 22-304, limits assumed); experiment: HEK293 cell microarray
T9 construct: whole, on cells
T9 sequence (Q14953 22-304 limits assumed): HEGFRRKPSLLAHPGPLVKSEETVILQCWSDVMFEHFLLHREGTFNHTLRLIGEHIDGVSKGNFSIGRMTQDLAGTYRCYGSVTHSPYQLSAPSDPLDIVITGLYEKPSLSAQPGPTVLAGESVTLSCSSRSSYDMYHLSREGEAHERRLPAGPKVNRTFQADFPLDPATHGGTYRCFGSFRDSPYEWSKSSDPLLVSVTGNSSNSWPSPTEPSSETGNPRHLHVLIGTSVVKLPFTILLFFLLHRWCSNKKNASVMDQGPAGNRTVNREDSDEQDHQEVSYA
Procedure: as §1
as §1, with “In Table 4, replicate” for “Replicate”, “the” for “a complete”, “panel (as in FIG. 1A, FIG. 2B, and FIG. 2C)” for “panel”

Binder	binding result
B1	no binding (tested: supernatant 1:5, 1:25, 1:250)
B2	no binding (tested: supernatant 1:5, 1:25, 1:250)
B3	no binding (tested: supernatant 1:5, 1:25, 1:250)

target: T10, KIR2DL4 (UniProt Q99706 22-377, limits assumed); experiment: HEK293 cell microarray
T10 construct: whole, on cells
T10 sequence (Q99706 22-377 limits assumed): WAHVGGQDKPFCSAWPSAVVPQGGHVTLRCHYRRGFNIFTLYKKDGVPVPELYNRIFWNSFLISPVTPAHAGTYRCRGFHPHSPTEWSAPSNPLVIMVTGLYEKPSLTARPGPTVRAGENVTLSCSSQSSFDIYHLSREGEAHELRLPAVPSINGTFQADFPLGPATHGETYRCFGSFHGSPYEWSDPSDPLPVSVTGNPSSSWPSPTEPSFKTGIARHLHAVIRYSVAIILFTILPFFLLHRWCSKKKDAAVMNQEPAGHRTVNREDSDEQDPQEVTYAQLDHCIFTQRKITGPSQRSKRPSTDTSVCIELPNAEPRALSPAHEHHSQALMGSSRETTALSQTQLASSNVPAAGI
Procedure: as §1
as §1, with “In Table 4, replicate” for “Replicate”, “the” for “a complete”, “panel (as in FIG. 1A, FIG. 2B, and FIG. 2C)” for “panel”

Binder	binding result
B1	no binding (tested: supernatant 1:5, 1:25, 1:250)
B2	no binding (tested: supernatant 1:5, 1:25, 1:250)
B3	no binding (tested: supernatant 1:5, 1:25, 1:250)

target: T11, KIR3DL1 (UniProt P43629 22-444, limits assumed); experiment: HEK293 cell microarray
T11 construct: whole, on cells
T11 sequence (P43629 22-444 limits assumed): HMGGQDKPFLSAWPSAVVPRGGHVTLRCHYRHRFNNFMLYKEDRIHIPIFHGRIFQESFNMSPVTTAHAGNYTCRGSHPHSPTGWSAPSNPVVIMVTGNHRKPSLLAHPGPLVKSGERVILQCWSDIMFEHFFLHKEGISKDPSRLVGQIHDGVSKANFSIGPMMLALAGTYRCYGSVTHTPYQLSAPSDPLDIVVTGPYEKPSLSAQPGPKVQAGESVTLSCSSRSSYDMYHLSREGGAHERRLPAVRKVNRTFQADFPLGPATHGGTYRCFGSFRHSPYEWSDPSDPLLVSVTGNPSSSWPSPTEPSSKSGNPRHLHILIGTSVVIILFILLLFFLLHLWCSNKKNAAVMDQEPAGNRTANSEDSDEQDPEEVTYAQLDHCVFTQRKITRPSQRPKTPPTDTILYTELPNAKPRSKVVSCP
Procedure: as §1
as §1, with “In Table 4, replicate” for “Replicate”, “the” for “a complete”, “panel (as in FIG. 1A, FIG. 2B, and FIG. 2C)” for “panel”

Binder	binding result
B1	no binding (tested: supernatant 1:5, 1:25, 1:250)
B2	no binding (tested: supernatant 1:5, 1:25, 1:250)
B3	no binding (tested: supernatant 1:5, 1:25, 1:250)

target: T12, KIR2DL3 (UniProt P43628 22-341, limits assumed); experiment: HEK293 cell microarray
T12 construct: whole, on cells
T12 sequence (P43628 22-341 limits assumed): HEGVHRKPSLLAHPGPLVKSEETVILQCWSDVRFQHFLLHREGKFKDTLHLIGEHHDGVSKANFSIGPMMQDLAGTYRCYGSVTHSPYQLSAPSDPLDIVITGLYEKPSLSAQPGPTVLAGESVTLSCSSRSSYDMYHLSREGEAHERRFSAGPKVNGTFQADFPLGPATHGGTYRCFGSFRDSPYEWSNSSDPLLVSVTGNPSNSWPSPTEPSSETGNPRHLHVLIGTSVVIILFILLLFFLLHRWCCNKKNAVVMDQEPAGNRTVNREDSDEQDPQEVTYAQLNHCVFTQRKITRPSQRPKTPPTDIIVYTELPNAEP
Procedure: as §1
as §1, with “In Table 4, replicate” for “Replicate”, “the” for “a complete”, “panel (as in FIG. 1A, FIG. 2B, and FIG. 2C)” for “panel”

Binder	binding result
B1	no binding (tested: supernatant 1:5, 1:25, 1:250)
B2	no binding (tested: supernatant 1:5, 1:25, 1:250)
B3	no binding (tested: supernatant 1:5, 1:25, 1:250)

target: T13, KIR2DL2 (UniProt P43627 22-348, limits assumed); experiment: HEK293 cell microarray
T13 construct: whole, on cells
T13 sequence (P43627 22-348 limits assumed): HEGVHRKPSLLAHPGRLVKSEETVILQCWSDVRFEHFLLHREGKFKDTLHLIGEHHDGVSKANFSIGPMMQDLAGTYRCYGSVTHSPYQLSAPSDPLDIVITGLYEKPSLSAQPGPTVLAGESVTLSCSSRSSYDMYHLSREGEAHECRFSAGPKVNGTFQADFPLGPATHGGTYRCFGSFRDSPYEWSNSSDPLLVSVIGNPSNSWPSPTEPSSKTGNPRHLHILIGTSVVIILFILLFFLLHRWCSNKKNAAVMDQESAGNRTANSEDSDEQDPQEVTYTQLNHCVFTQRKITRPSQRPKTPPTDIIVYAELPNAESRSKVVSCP
Procedure: as §1
as §1, with “In Table 4, replicate” for “Replicate”, “the” for “a complete”, “panel (as in FIG. 1A, FIG. 2B, and FIG. 2C)” for “panel”

Binder	binding result
B1	no binding (tested: supernatant 1:5, 1:25, 1:250)
B2	no binding (tested: supernatant 1:5, 1:25, 1:250)
B3	no binding (tested: supernatant 1:5, 1:25, 1:250)

target: T14, KIR2DL5B (UniProt Q8NHK3 22-375, limits assumed); experiment: HEK293 cell microarray
T14 construct: whole, on cells
T14 sequence (Q8NHK3 22-375 limits assumed): as the sequence (Q8N109 22-375 limits assumed) above, with N152D, G174S counted along it
Procedure: as §1
as §1, with “In Table 4, replicate” for “Replicate”, “the” for “a complete”, “panel (as in FIG. 1A, FIG. 2B, and FIG. 2C)” for “panel”

Binder	binding result
B1	no binding (tested: supernatant 1:5, 1:25, 1:250)
B2	no binding (tested: supernatant 1:5, 1:25, 1:250)
B3	no binding (tested: supernatant 1:5, 1:25, 1:250)

target: T1, Human KIR3DL3; experiment: flow cytometry, KIR3DL3-transfected 300.19 cells; remark: another data set of the same source

Kd [µg/mL]	Binder
0.43	B1
1	B2
0.77	B3

target: T1, Human KIR3DL3; experiment: flow cytometry; blockade of HHLA2-mIgG2a binding to KIR3DL3-transfected cells
Procedure: (§2) The indicated concentrations of KIR3DL3 mAbs were pre-incubated with KIR3DL3 transfected 300.19 cells for 30 minutes at 4° C. […] EC50 and IC50 analysis were conducted using GraphPad Prism®.

IC50 [µg/mL]	Binder
0.42	B1
> 10	B2

target: T1, Human KIR3DL3; experiment: flow cytometry; blockade of HHLA2-mIgG2a binding to KIR3DL3-transfected 300.19 cells
Procedure: as §2

IC50 [µg/mL]	Binder
0.16	B1
27.5	B2
0.32	B3

target: T15, Human KIR3DL3, Sino Biological Cat#: 16055-H08H (human, UniProt Q8N743 26-322); experiment: BLI (Octet RED96), antibody captured on the sensor, antigen in solution, 1:1 model
T15 construct: Bought soluble antigen; also called KIR3DL3 (Octet antigen)
T15 sequence (Q8N743 other isoform, or with tags, fused parts or gaps H08H H08H limits assumed): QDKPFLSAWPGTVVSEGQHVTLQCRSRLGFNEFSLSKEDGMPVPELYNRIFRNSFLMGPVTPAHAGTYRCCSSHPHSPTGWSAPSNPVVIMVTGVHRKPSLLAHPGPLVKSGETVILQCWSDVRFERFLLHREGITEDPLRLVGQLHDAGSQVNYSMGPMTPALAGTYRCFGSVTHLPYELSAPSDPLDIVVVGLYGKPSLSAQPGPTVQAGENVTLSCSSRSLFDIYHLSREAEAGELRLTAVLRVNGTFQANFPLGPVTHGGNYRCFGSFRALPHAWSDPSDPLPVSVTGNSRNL
Procedure: Binding experiments were performed on Octat Red af 25″° C. The human antibodies were loaded onto Anti-higG Fe Capture biosensors and the mouse antibodies were loaded onto Anti-migG Fe Capture biosensors both for 300 seconds. The ligand loaded sensors were dipped into a 3-fold series dilution (starting at 300 nad) of the antigens (PD-1 and KIR3DL3) for 240 seconds followed by dissociation for 400 seconds. Kinetic constanta were calculated using a monovalent (1:1) binding model Antigen: Haman PD1, Sino Biological Cat #: HPLC-10377-HOSH.

Kd [pM]	koff [s⁻¹]	kon [M⁻¹ s⁻¹]	Binder
506	0.000118	233000	B1
